Measured values: PMC10164398

Columns and labels:
Experiment in all cases: EMSA
[1] = target: NS1 (89-237) effector domain;eIF4E;eIF4G1 (88-653) (Influenza A virus (H3N2);human;human, UniProt P03495;P06730;Q04637 89-237;1-217;88-653, ||)
[2] = target: NS1 (89-237) effector domain (Influenza A virus (H3N2), UniProt P03495 89-237)
eIF4E;eIF4G1 (88-653) = eIF4E;eIF4G1 (88-653) (human;human, UniProt P06730;Q04637 1-217;88-653, |)
Chain of eIF4E;eIF4G1 (88-653) (P06730 whole entry, chain 1 of 2): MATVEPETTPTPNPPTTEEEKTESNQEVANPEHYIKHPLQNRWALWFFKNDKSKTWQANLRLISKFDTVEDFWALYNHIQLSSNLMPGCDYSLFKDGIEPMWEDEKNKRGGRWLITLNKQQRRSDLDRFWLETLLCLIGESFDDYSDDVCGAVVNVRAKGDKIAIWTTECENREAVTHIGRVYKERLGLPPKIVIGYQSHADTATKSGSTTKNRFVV
Chain of eIF4E;eIF4G1 (88-653) (Q04637 88-653, chain 2 of 2): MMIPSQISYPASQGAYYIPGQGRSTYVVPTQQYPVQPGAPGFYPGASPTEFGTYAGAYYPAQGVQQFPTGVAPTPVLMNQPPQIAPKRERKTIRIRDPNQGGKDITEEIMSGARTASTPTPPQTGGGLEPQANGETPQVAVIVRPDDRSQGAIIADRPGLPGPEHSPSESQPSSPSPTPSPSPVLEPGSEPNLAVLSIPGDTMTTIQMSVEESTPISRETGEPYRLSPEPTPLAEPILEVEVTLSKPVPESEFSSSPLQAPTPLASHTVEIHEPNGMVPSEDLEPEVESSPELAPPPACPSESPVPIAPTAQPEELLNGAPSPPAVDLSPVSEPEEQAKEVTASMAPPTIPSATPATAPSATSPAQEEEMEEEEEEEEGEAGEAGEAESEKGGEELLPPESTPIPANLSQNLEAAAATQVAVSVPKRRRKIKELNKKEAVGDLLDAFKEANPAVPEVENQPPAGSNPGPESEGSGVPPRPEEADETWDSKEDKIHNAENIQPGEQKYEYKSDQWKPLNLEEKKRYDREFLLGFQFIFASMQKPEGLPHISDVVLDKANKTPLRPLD

Chain of NS1 (89-237) effector domain;eIF4E;eIF4G1 (88-653) (P03495 89-237, chain 1 of 3): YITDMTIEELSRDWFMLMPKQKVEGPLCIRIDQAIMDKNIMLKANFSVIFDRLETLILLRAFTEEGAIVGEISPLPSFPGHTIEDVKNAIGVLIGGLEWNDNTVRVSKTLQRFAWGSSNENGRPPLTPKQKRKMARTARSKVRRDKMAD
Chain of NS1 (89-237) effector domain;eIF4E;eIF4G1 (88-653) (P06730 whole entry, chain 2 of 3, the tested form may be a part): as the sequence (P06730 whole entry, chain 1 of 2) above
Chain of NS1 (89-237) effector domain;eIF4E;eIF4G1 (88-653) (Q04637 88-653, chain 3 of 3): as the sequence (Q04637 88-653, chain 2 of 2) above
Chain of NS1 (89-237) effector domain (P03495 89-237): as the sequence (P03495 89-237, chain 1 of 3) above

**Q.** Does GGGUGACAGUCCUGUUU (ssRNA, 5' m7G cap (vaccinia capping)) [5'-m7G-mRNA] bind [1]?
**A.** binds

**Q.** Does GGGUGACAGUCCUGUUU (ssRNA, 5' m7G cap (vaccinia capping)) [5'-m7G-mRNA] bind [2]?
**A.** no binding

**Q.** Does GGGUGACAGUCCUGUUU (ssRNA, 5' m7G cap (vaccinia capping)) [5'-m7G-mRNA] bind (eIF4E;eIF4G1 (88-653))?
**A.** binds
